Results: patent publication US20200408781A1

What was measured:
[1] = target: p217+ tau in pooled CSF from AD subjects (human tau protein or tau fragments phosphorylated at T217 and/or T212) (human) (UniProt P10636); test: Simoa sandwich ELISA, pT3 capture; pooled AD CSF at 1:16 dilution
[2] = target: p217+ tau in pooled CSF from AD subjects (human tau protein or tau fragments phosphorylated at T217 and/or T212) (human) (UniProt P10636); test: Simoa sandwich ELISA, pT3 capture; pooled AD CSF at 1:4 dilution
[3] = target: p217+ tau in pooled CSF from AD subjects (human tau protein or tau fragments phosphorylated at T217 and/or T212) (human) (UniProt P10636); test: Simoa sandwich ELISA, pT3 capture; pooled AD CSF at 1:32 dilution
[4] = target: p217+ tau in pooled CSF from AD subjects (human tau protein or tau fragments phosphorylated at T217 and/or T212) (human) (UniProt P10636); test: Simoa sandwich ELISA, pT3 capture; pooled AD CSF at 1:8 dilution
[5] = target: p217+ tau in pooled CSF from AD subjects (human tau protein or tau fragments phosphorylated at T217 and/or T212) (human) (UniProt P10636); test: Simoa sandwich ELISA, pT3 capture; pooled AD CSF at 1:2 dilution
[6] = target: p217+ tau in pooled CSF from AD subjects (human tau protein or tau fragments phosphorylated at T217 and/or T212) (human) (UniProt P10636); test: Simoa sandwich ELISA, pT3 capture; pooled AD CSF at 1:64 dilution

Chain of p217+ tau in pooled CSF from AD subjects (human tau protein or tau fragments phosphorylated at T217 and/or T212) (human) (P10636 other isoform, or with tags, fused parts or gaps limits assumed): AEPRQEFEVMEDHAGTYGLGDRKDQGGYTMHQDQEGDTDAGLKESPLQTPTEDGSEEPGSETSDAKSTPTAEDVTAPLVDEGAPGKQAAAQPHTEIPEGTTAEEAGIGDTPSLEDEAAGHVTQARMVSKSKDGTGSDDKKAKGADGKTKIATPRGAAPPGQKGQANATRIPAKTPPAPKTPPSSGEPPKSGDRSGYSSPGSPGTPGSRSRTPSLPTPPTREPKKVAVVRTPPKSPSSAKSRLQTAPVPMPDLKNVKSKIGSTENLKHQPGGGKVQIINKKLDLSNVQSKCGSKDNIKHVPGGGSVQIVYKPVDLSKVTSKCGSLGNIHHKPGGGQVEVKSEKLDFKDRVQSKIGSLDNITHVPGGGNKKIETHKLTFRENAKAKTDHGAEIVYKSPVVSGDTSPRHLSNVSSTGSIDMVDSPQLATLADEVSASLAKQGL

A S/N (Signal/Noise) [1] of 75, a S/N (Signal/Noise) [2] of 262 and a S/N (Signal/Noise) [3] of 35 were found for “Quanterix tau 2.0 assay detector (antibody)” in this work. It also gave a S/N (Signal/Noise) [4] of 147, a S/N (Signal/Noise) [5] of 525 and a S/N (Signal/Noise) [6] of 19.
